The source of these data is patent US6806056B2, “Fluorescent capture assay for kinase activity employing an anti-phosphotyrosine antibody as both the capture agent and detecting agent” (Pharmacopeia Drug Discovery, Inc., priority 1999, dated 2004).

Common to all, as to format: cell-based
Series [1] concerns Jurkat cells. Briefly: Anti-phosphotyrosine capture assay of tyrosine kinase activity after SDF-1α stimulation for various times. The following applies: 37° C., 100 nM SDF-1α, various time intervals, FIG. 2. As to the method: (§1) 96-well polystyrene plates were coated with an anti-phosphotyrosine antibody, pY99 (Santa Cruz Biotech, Inc., Santa Cruz, Calif.), by adding 200 μl of an antibody solution in Tris buffered saline (TBS) pH 8.0 at a concentration of 2.5 μg/ml. The plates were incubated for three hours at room temperature. The plates were then rinsed and 300 μl of blocking solution, sold under the trademark, SUIPERBLOCK® (Pierce Chemical, Rockford, Ill.) was added and the plates were incubated for two hours. At this point, the plates may be stored at 4° C. for up to two weeks. […]
To assay the cell lysates for kinase activity, the plate was thawed at 37° C., and 100 μl of tris buffered saline with 0.1% Tween 20 was added to each well. […] Relative phosphorylated protein levels were detected by adding 100 μl of a 0.2 μg/ml solution of europium-chelate labeled anti-phosphotyrosine antibody in tris buffered saline (pH 8.0) to each well and allowing the plate to incubate for one hour with shaking. […] Enhancement Solution for measuring Eu^3+ (E. G. & G. Wallac, Turku, FI) was added and the amount of labeled antibody bound was measured using a time-resolved fluorescence plate reader, for example, a Wallac 1420, or Victor MLC (Wallac Oy, Turku, FI). […]

For series [2], the system named is Daudi B cells. Description: Anti-phosphotyrosine capture assay (time-resolved fluorescence) of tyrosine phosphorylation in stimulated B-cells. To be noted: ligand 100 ng/ml, 15 minutes, FIG. 1. As for the experimental part: as §1
(§2) To assay the cell lysates for kinase activity, the plate was thawed at 37° C., and 100 μl of tris buffered saline with 0.1% Tween 20 was added to each well. […] Relative phosphorylated protein levels were detected by adding 100 μl of a 0.2 μg/ml solution of europium-chelate labeled anti-phosphotyrosine antibody in tris buffered saline (pH 8.0) to each well and allowing the plate to incubate for one hour with shaking. […] Enhancement Solution for measuring Eu^3+ (E. G. & G. Wallac, Turku, FI) was added and the amount of labeled antibody bound was measured using a time-resolved fluorescence plate reader, for example, a Wallac 1420, or Victor MLC (Wallac Oy, Turku, FI).

For series [3], the system named is Ramos B cells. Described as above. To be noted: ligand 100 ng/ml, 15 minutes, FIG. 1. As to the method:
as §1, §2

For SDF-1α, in series [1], the “tyrosine kinase activity (fluorescence) as time increases” value is “decrease in kinase activity”.

B1: IL-4: IL-4, used as a stimulus for Daudi or Ramos B-cells (protein, UniProt P05112 25-153, looked up)
Interleukin-4: HKCDITLQEIIKTLNSLTEQKTLCTELTVTDIFAASKNTTEKETFCRAATVLRQFYSHHEKDTRCLGATAQQFHRHKQLIRFLKRLDRNLWGLAGLNSCPVKEANQSTLENFLERLKTIMREKYSKCSS
In the case of B1, the “changes in tyrosine phosphorylation on stimulation” value in series [2] and in series [3] was “not significantly” throughout.
